The text below walks through data of patent US20180185450A1 (Sanofi, published 2018).

Numbered stars: 1 amine (or outer) side, 2 acyl side, 3 side chain; on linkers, the order of the positions; unused ones are H or OH. Square brackets hold non-standard residues; d marks the D form. Side chains are listed from the residue outwards. Ends that are not written are not given here. γGlu = O=C(O)[C@H](CCC(=O)[*:2])N[*:1]; x53 = not defined here; Aib = CC(C)(N)C(=O)O

The first assay deals with human GLP-1 receptor (human, UniProt P43220 24-463). Nature of the assay: cell-based or functional assay.
As to HSHGTFTSDLSKQK([γGlu-x53])ESRRAQDFIEWLKAGGPSSGAPPPS-NH2 (reading uncertain) [SEQ ID NO: 208], the “EC50 hGLP-1R (cAMP)” value was found to be 2 pM.

Turning to HXQGTFTSDLSKQKEEEAAKDFIEWLKAGGPSSGAPPPS (dSer at 2; K(γE-x53) at 14; C-terminal NH2) [SEQ ID NO: 17], the “EC50 hGLP-1R (cAMP)” value is 1.7 pM.

With HXQGTFTSDLSKQKEEEAAKLFIEWLKAGGPSSGAPPPS (dSer at 2; K(γE-x53) at 14; C-terminal NH2) [SEQ ID NO: 19], the “EC50 hGLP-1R (cAMP)” value came to 1.9 pM.

In the case of HXHGTFTSDLSKQKDEEAARLFIEWLKAGGPSSGAPPPS (dSer at 2; K(γE-X70) at 14; C-terminal NH2) [SEQ ID NO: 220], the “EC50 hGLP-1R (cAMP)” value came out at 2 pM.

As for HXQGTFTSDLSKQKDSQAAQDFIEWLKAGGPSSGAPPPS (dSer at 2; K(γE-x53) at 14; C-terminal NH2) [SEQ ID NO: 39], the “EC50 hGLP-1R (cAMP)” value turned out to be 2.7 pM.

With HXQGTFTSDLSKQKEEEAAXDFIEWLKAGGPSSGAPPPS (dSer at 2; K(γE-x53) at 14; Aib at 20; C-terminal NH2) [SEQ ID NO: 18], the “EC50 hGLP-1R (cAMP)” value is 2.6 pM.

Turning to HXQGTFTSDLSKQKEEKKAKLFIEWLKAGGPSSGAPPPS (dSer at 2; K(γE-x53) at 14; C-terminal NH2) [SEQ ID NO: 23], the “EC50 hGLP-1R (cAMP)” value was 5.6 pM.

On to HXQGTFTSDLSKQKDEQAAQDFIEWLKAGGPSSGAPPPS (dSer at 2; K(γE-x53) at 14; C-terminal NH2) [SEQ ID NO: 34], for which the “EC50 hGLP-1R (cAMP)” value is 1.5 pM.

For the molecule HXQGTFTSDLSKQKDEEAARLFIEWLKAGGPSSGAPPPS (dSer at 2; K(γE-x53) at 14; C-terminal NH2) [SEQ ID NO: 221], the “EC50 hGLP-1R (cAMP)” value was 1.5 pM.

On to HXQGTFTSDLSKQKDEKAAQDFIEWLKAGGPSSGAPPPS (dSer at 2; K(γE-x53) at 14; C-terminal NH2) [SEQ ID NO: 22], for which the “EC50 hGLP-1R (cAMP)” value was 1.1 pM.

Turning to HXQGTFTSDLSKQKDEEAARLFIEWLKAGGPSSGAPPPS (dSer at 2; K(γE-X70) at 14; C-terminal NH2) [SEQ ID NO: 222], the “EC50 hGLP-1R (cAMP)” value came to 1.8 pM.

With HXHGTFTSDLSKQKEEEAARLFIEWLKAGGPSSGAPPPS (dSer at 2; K(γE-X70) at 14; C-terminal NH2) [SEQ ID NO: 219], the “EC50 hGLP-1R (cAMP)” value was 2.1 pM.

As to H[Aib]QGTFTSDLSKQK([γGlu-x53])DSKAAQDFIEWLKAGGPSSGAPPPS-NH2 (reading uncertain) [SEQ ID NO: 31], the “EC50 hGLP-1R (cAMP)” value was 1.7 pM.

As to HXQGTFTSDLSKQKESRRAQLFIEWLKAXGPSSGAPPPS (Aib at 2; K(γE-x70) at 14; dAla at 29; C-terminal NH2) [SEQ ID NO: 205], the “EC50 hGLP-1R (cAMP)” value came out at 12.3 pM.

As to HXQGTFTSDLSKQKESQAAQDFIEWLKAGGPSSGAPPPS (dSer at 2; K(γE-x53) at 14; C-terminal NH2) [SEQ ID NO: 35], the “EC50 hGLP-1R (cAMP)” value came to 1.5 pM.

In the case of HXQGTFTSDLSKQKDKRAAQLFIEWLKAXGPSSGAPPPS (Aib at 2; K(γE-x70) at 14; dAla at 29; C-terminal NH2) [SEQ ID NO: 211], the “EC50 hGLP-1R (cAMP)” value worked out at 15.5 pM.

For the molecule HXQGTFTSDLSKQKESEAAQLFIEWLKAGGPSSGAPPPS (dSer at 2; K(γE-x53) at 14; C-terminal NH2) [SEQ ID NO: 21], the “EC50 hGLP-1R (cAMP)” value was 3.8 pM.

Regarding HXQGTFTSDLSKQKESQAAQEFIEWLKAGGPSSGAPPPS (dSer at 2; K(γE-x53) at 14; C-terminal NH2) [SEQ ID NO: 37], the “EC50 hGLP-1R (cAMP)” value is 1.5 pM.

In the case of HXQGTFTSDLSKQKESKAAQLFIEWLKAGGPSSGAPPPS (dSer at 2; K(γE-x53) at 14; C-terminal NH2) [SEQ ID NO: 29], the “EC50 hGLP-1R (cAMP)” value worked out at 5.9 pM.

On to HXQGTFTSDLSKQKDKRRAQLFIEWLKAXGPSSGAPPPS (Aib at 2; K(γE-x70) at 14; dAla at 29; C-terminal NH2) [SEQ ID NO: 210], for which the “EC50 hGLP-1R (cAMP)” value turned out to be 6.7 pM.

The target in a further assay is human glucagon receptor (human, UniProt P47871 26-477). Nature of the assay: cell-based or functional assay.
Sequence of human glucagon receptor (P47871 26-477): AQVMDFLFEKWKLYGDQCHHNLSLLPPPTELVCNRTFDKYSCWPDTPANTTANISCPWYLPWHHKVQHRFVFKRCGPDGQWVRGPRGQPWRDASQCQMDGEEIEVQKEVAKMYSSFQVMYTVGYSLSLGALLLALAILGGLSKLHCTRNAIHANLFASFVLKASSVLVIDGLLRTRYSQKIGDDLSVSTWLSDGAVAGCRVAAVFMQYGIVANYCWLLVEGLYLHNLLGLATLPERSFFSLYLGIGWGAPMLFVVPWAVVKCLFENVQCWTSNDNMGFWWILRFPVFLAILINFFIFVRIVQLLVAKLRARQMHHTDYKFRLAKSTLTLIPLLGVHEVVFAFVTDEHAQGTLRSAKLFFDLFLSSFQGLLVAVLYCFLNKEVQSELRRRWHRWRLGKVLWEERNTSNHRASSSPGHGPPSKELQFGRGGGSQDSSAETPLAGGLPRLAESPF
Take HSHGTFTSDLSKQK([γGlu-x53])ESRRAQDFIEWLKAGGPSSGAPPPS-NH2 (reading uncertain) [SEQ ID NO: 208]: the “EC50 hGlucagon-R (cAMP)” value is 1.3 pM.

Turning to HXQGTFTSDLSKQKEEEAAKDFIEWLKAGGPSSGAPPPS (dSer at 2; K(γE-x53) at 14; C-terminal NH2) [SEQ ID NO: 17], the “EC50 hGlucagon-R (cAMP)” value is 93.1 pM.

For HXQGTFTSDLSKQKEEEAAKLFIEWLKAGGPSSGAPPPS (dSer at 2; K(γE-x53) at 14; C-terminal NH2) [SEQ ID NO: 19], the “EC50 hGlucagon-R (cAMP)” value stood at 104 pM.

For the molecule HXHGTFTSDLSKQKDEEAARLFIEWLKAGGPSSGAPPPS (dSer at 2; K(γE-X70) at 14; C-terminal NH2) [SEQ ID NO: 220], the “EC50 hGlucagon-R (cAMP)” value stood at 2.3 pM.

As for HXQGTFTSDLSKQKDSQAAQDFIEWLKAGGPSSGAPPPS (dSer at 2; K(γE-x53) at 14; C-terminal NH2) [SEQ ID NO: 39], the “EC50 hGlucagon-R (cAMP)” value turned out to be 7.6 pM.

Turning to HXQGTFTSDLSKQKEEEAAXDFIEWLKAGGPSSGAPPPS (dSer at 2; K(γE-x53) at 14; Aib at 20; C-terminal NH2) [SEQ ID NO: 18], the “EC50 hGlucagon-R (cAMP)” value was found to be 152 pM.

In the case of HXQGTFTSDLSKQKEEKKAKLFIEWLKAGGPSSGAPPPS (dSer at 2; K(γE-x53) at 14; C-terminal NH2) [SEQ ID NO: 23], the “EC50 hGlucagon-R (cAMP)” value worked out at 126 pM.

For the molecule HXQGTFTSDLSKQKDEQAAQDFIEWLKAGGPSSGAPPPS (dSer at 2; K(γE-x53) at 14; C-terminal NH2) [SEQ ID NO: 34], the “EC50 hGlucagon-R (cAMP)” value was found to be 6.7 pM.

Turning to HXQGTFTSDLSKQKDEEAARLFIEWLKAGGPSSGAPPPS (dSer at 2; K(γE-x53) at 14; C-terminal NH2) [SEQ ID NO: 221], the “EC50 hGlucagon-R (cAMP)” value amounted to 9.2 pM.

In the case of HXQGTFTSDLSKQKDEKAAQDFIEWLKAGGPSSGAPPPS (dSer at 2; K(γE-x53) at 14; C-terminal NH2) [SEQ ID NO: 22], the “EC50 hGlucagon-R (cAMP)” value was found to be 2.4 pM.

Turning to HXQGTFTSDLSKQKDEEAARLFIEWLKAGGPSSGAPPPS (dSer at 2; K(γE-X70) at 14; C-terminal NH2) [SEQ ID NO: 222], the “EC50 hGlucagon-R (cAMP)” value amounted to 2.9 pM.

Turning to HXHGTFTSDLSKQKEEEAARLFIEWLKAGGPSSGAPPPS (dSer at 2; K(γE-X70) at 14; C-terminal NH2) [SEQ ID NO: 219], the “EC50 hGlucagon-R (cAMP)” value is 3.7 pM.

In the case of H[Aib]QGTFTSDLSKQK([γGlu-x53])DSKAAQDFIEWLKAGGPSSGAPPPS-NH2 (reading uncertain) [SEQ ID NO: 31], the “EC50 hGlucagon-R (cAMP)” value is 9.3 pM.

Regarding HXQGTFTSDLSKQKESRRAQLFIEWLKAXGPSSGAPPPS (Aib at 2; K(γE-x70) at 14; dAla at 29; C-terminal NH2) [SEQ ID NO: 205], the “EC50 hGlucagon-R (cAMP)” value amounted to 5.2 pM.

Regarding HXQGTFTSDLSKQKESQAAQDFIEWLKAGGPSSGAPPPS (dSer at 2; K(γE-x53) at 14; C-terminal NH2) [SEQ ID NO: 35], the “EC50 hGlucagon-R (cAMP)” value is 14.2 pM.

On to HXQGTFTSDLSKQKDKRAAQLFIEWLKAXGPSSGAPPPS (Aib at 2; K(γE-x70) at 14; dAla at 29; C-terminal NH2) [SEQ ID NO: 211], for which the “EC50 hGlucagon-R (cAMP)” value was 26.4 pM.

Turning to HXQGTFTSDLSKQKESEAAQLFIEWLKAGGPSSGAPPPS (dSer at 2; K(γE-x53) at 14; C-terminal NH2) [SEQ ID NO: 21], the “EC50 hGlucagon-R (cAMP)” value stood at 144 pM.

HXQGTFTSDLSKQKESQAAQEFIEWLKAGGPSSGAPPPS (dSer at 2; K(γE-x53) at 14; C-terminal NH2) [SEQ ID NO: 37]: the “EC50 hGlucagon-R (cAMP)” value came out at 12.9 pM.

As to HXQGTFTSDLSKQKESKAAQLFIEWLKAGGPSSGAPPPS (dSer at 2; K(γE-x53) at 14; C-terminal NH2) [SEQ ID NO: 29], the “EC50 hGlucagon-R (cAMP)” value came out at 87.9 pM.

Turning to HXQGTFTSDLSKQKDKRRAQLFIEWLKAXGPSSGAPPPS (Aib at 2; K(γE-x70) at 14; dAla at 29; C-terminal NH2) [SEQ ID NO: 210], the “EC50 hGlucagon-R (cAMP)” value was found to be 3 pM.
